B1: GST-DA1-LIM (other)
chain: RICAGCNMEIGHGRFLNCLNSLWHPECFRCYGCSQPISEYEFSTSGNYPFHKACYRERYHP
notes: Only the LIM domain was in the assay; not shown: glutathione S-transferase (GST) tag from vector pGEX-4T-1
B2: GST-DA1-UIM (other)
chain: MGWFNKIFKGSNQRLRVGNNKHNHNVYYDNYPTASHDDEPSAADTDADNDEPHHTQEPSTSEDNTSNDQENEDIDRAIALSLLEENQEQTSISGKYSMPVDEDEQLARALQESMVVGNSPRHKSGSTYDNGNAYGAGDLYGNGHMYGGGNVYANGDIYYPRPITFQMDF
notes: Only the part holding the two UIM domains was in the assay; not shown: glutathione S-transferase (GST) tag from vector pGEX-4T-1

Molecular target: T1, MBP-DA2 (Arabidopsis, UniProt Q93YV5 1-401)
T1 construct: Used as bacterial lysate and held on amylose resin; also called DA2 expressed as a MBP fusion protein; DA2-MBP
T1 sequence: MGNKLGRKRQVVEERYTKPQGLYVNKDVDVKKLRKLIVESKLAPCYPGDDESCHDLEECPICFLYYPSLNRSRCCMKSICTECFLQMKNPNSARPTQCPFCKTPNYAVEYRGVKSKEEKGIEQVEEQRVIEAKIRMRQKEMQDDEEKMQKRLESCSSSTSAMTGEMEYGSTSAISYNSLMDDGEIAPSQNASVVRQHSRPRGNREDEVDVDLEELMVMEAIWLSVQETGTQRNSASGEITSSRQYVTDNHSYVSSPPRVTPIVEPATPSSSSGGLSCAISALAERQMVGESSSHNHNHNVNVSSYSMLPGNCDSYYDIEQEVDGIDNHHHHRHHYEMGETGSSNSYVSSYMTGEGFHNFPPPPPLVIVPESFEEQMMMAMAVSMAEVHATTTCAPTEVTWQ
Test: in vitro pull-down on amylose resin, anti-GST immunoblot
Method: To test protein-protein interaction, bacterial lysates containing approximately 15 μg of MBP-DA2 fusion proteins were combined with lysates containing approximately 30 μg of GST-DA1, GST-DA1R358K, GST-DA1-UIM, GST-DA1-LIM, GST-DA1-LIM+C or GST-DA1-C fusion proteins. 20 μl amylose resin (New England Biolabs) was added into each combined solution with continued rocking at 4° C. for 1 hour. Beads were washed […] with TGH buffer, and the isolated proteins were separated on a 10% SDS-polyactyamide gel and detected by western blot analysis with anti-GST (Abmart) and anti-MBP antibodies (Abmart), respectively.

Binder	binding result
B1	no binding
B2	no binding

From patent US20190300897A1 (INSTITUTE OF GENETICS AND DEVELOPMENTAL BIOLOGY CHINESE …, published 2019)
